Max RO % data for one substance are collected here from patent US20250215109A1.

This test concerns the target HER2 on human tumor cells (human) (UniProt P04626). Briefly: Her2 receptor occupancy on SK-BR-3 cells, FACS, competitor biotin-labeled parental anti-HER2 antibody.

In the case of Magrolimab (antibody), the Max RO % was 0%.
